Laboratory results reported in the supplement of paper PMC9170038.

Test system: MS2 coat protein
Assay: apparent KD of MS2 coat protein; higher = weaker reporter binding
Conditions: Eterna round: R107
Method: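 RNA-MaP round R107: designed RNA switches with theophylline, tryptophan, arginine or FMN aptamers are transcribed on-chip within common flanks. They are titrated with SNAP-549-labelled MS2 coat protein in RNA-MaP buffer (100 mM Tris pH 7.5, 80 mM KCl, 4 mM MgCl2), without ligand or with the indicated ligand. Median apparent KD per design.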

[1] = input ligand: theophylline 20 uM
[2] = input ligand: theophylline 2 mM
[3] = input ligand: tryptophan 2.4 mM

Sequence	apparent KD of MS2 coat protein (input ligand: arginine 13.2 mM) [nM]	apparent KD of MS2 coat protein [1] [nM]	apparent KD of MS2 coat protein [2] [nM]	apparent KD of MS2 coat protein [3] [nM]	apparent KD of MS2 coat protein (input ligand: none) [nM]
UUAUAAGUACCGGUCCUCAGAUCCUCAUGACGAGGACCGGUACGGCCGCCACUCGAAACAUGAGGAUCACCCAUGUAAUAAUAUU [Brourdmod07]	16	25.3	23.3	–	–
CGACGAUACCUGGAUACCAGCGACAUGAGGAUCACCCAUGUAUGUGGAUCAGCCAUGAUAUGCCCUUGGCAGCCACCAAAGUCGG [IIIMULLIN]	17	24.1	–	14.3	–
GCCGGGCCCUCGGCCGCCACUGAGAGAGUCGUGUGAACAUGAGGAUCACCCAUGUAAUAUAUAUACAGGACCGGGAGGGCCCGGC [4.W]	11.9	21.8	13.9	11.9	13.3
GAGCUGAUGUAGAGCGAAUAUUCGAGAGAUACCAGUACAGAAAUGUACCCUUGGCAGCUCAACUUUACAUGAGGAUCACCCAUGU [Ex Theophylline A 23]	15	15.6	–	14.7	–
CGAUAGGGUCAAUACCUAAUCAUAUCUGAAGGAGCGUGGAUAUACACAGGUAGGUCGCAGAAUCACAUGAGGAUCACCCAUGUCC [Same State Arginine A GF13]	60.2	127	154	96.5	102
UGGGUAGCAUAGCUUGAUAGCUACACUGAAGGAGCGAGGAUAACCUCAGGUAGGUCGCAGACAUGAGGAUCACCCAUGUAGAUGG [Same State Arginine A GF18]	63.9	359	231	276	186
UAUAUAUAUAUUGAUACCAGCAGAGAAAACGUUUAUCCUAACAUGAGGAUCACCCAUGUAUGCCCUUGGCAGCGAUAUAUAUAUA [8.C]	22.2	31.3	–	21.7	–
GAGUACACUACGGCCGCCACUCAAGGAGCUACAUAGCUCCUAGACAUGAGGAUCACCCAUGUACCGAGGACCGGGUAGAUCCUUA [Same State Typrtophan B GF2]	129	246	294	–	–
GGAGUAGAUGCGGCCGCCACUUUCUCAAGACACUACAUGAGGAUCACCCAUGUCCAUUCUACACUAAGGACCGGGCAUCCCAUGG [Alaa]	36.8	182	192	–	–
GGUCCCGUCGGAAGGAGCGACAUGAGGAUCACCCAUGUCUCCCGUUAUGGGAGUUCUUUAGGUCAGGUAGGUCGCCGGCGGGAGC [#1 Exclusion - Arginine B Attempt #15 (Inspired by Omei)]	52.4	123	141	74	94.5
ACGAUAGCACCUGAGGAUCACCCAGGUGAUACCAGCCUGGAAACAGGCCCUUGGCAGCACCUAAAAUAAAGGUAACUAUCGAAUA [TheoAX6 #MicroSwitchBubble #AlternativeMS2]	57.3	251	105	48.6	50.6
AUCAUGUAAUCAGAUACCAGACAUCUUUUAAUACAUAUUACAUGAGGAUCACCCAUGUUGGUCCCUUGGCAGCUGAAAUAUUUUU [JR_Nu_SSTheophyB_Sub027]	128	191	–	246	–
UAAUAAUUCCUCAUGUCACGAGUGGCAUAACGAGGACCGGUACGGCCGCCACUCGAACAUGAGGAUCACCCAUGUAGCCACUCGA [M'-T'-T-MS2-T'' - Design 4]	56.7	286	474	–	–
GAUUUAACAAAAGUUAGAUCAGUGGGUGAACGAGGACCGGUACGGCCGCCACUCGGACAUGAGGAUCACCCAUGUCCAUGUGAAA [AstrosExyTryA#20]	15.3	19.4	18.6	–	–
AGUCUCAGUGGAAGGAGCGUCGCGACUGCUACAUGAGGAUCACCCAUGUCGCCUUGAGCGCGACAGGUAGGUCGCCACGGUAGGC [Erraraorle]	14.1	29.6	20.8	18.2	17.5
AUAGUCUUGAGUGAUACCAGACUACAUGAGGAUCACCCAUGUUUCUUUUGGUUAUCAUGUGUCCCUUGGCAGCACGCAUGUAUAG [JR_ExcTheophyB_Sub014]	17.5	28	–	12.6	–
UAUAUAUAUAGUGAUACCAGCAGAGAAAACGUUUAUCCUAACAUGAGGAUCACCCAUGUAUGCCCUUGGCAGCGUUAUAUAUAUA [8.E]	21.2	29.1	–	21.9	–
UUGUUGUUUGGAAGGAGCGUGUAUGAUUAAGAACAUGAGGAUCACCCAUGUUGUAGGAUAGCACAGGUAGGUCGCCGGGUGGUGG [11.W]	18.8	22.5	23.5	14.6	14.8
